The record followed here is US20150140169.

T1: alpha-s1 casein from Bos taurus
T1 chain: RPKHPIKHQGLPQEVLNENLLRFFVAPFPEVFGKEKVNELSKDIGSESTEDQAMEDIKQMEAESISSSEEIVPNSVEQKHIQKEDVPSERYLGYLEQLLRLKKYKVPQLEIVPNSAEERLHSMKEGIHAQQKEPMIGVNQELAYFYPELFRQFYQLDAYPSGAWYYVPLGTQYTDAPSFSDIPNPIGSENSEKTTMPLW

B1: camel chymosin variant #157 (D290T) (protein)
chain: GKVAREPLTSYLDSQYFGKIYIGTPPQEFTVVFDTGSSDLWVPSIYCKSNVCKNHHRFDPRKSSTFRNLGKPLSIHYGTGSMEGFLGYDTVTVSNIVDPNQTVGLSTEQPGEVFTYSEFDGILGLAYPSLASEYSVPVFDNMMDRHLVARDLFSVYMDRNGQGSMLTLGAIDPSYYTGSLHWVPVTLQQYWQFTVDSVTINGVAVACVGGCQAILDTGTSVLFGPSSDILKIQMAIGATENRYGEFDVNCGNLRSMPTVVFEINGRDYPLSPSAYTSKDQGFCTSGFQGTNNSELWILGDVFIREYYSVFDRANNRVGLAKAI
B2: camel chymosin variant #166 (I297T) (protein)
chain: B1 chain with T290D, I297T
B3: camel chymosin variant #161 (L295M) (protein)
chain: B1 chain with T290D, L295M
B4: camel chymosin variant #158 (L295F) (protein)
chain: B1 chain with T290D, L295F
B5: camel chymosin variant #167 (I297V) (protein)
chain: B1 chain with T290D, I297V
B6: camel chymosin variant #160 (L295K) (protein)
chain: B1 chain with T290D, L295K
B7: camel chymosin variant #162 (L295R) (protein)
chain: B1 chain with T290D, L295R
B8: camel chymosin variant #164 (L295Y) (protein)
chain: B1 chain with T290D, L295Y
B9: camel chymosin variant #163 (L295T) (protein)
chain: B1 chain with T290D, L295T
B10: camel chymosin variant #165 (L295W) (protein)
chain: B1 chain with T290D, L295W
B11: camel chymosin variant #159 (L295I) (protein)
chain: B1 chain with T290D, L295I
B12: bovine chymosin B variant #6 (K221M) (protein)
chain: GEVASVPLTNYLDSQYFGKIYLGTPPQEFTVLFDTGSSDFWVPSIYCKSNACKNHQRFDPRKSSTFQNLGKPLSIHYGTGSMQGILGYDTVTVSNIVDIQQTVGLSTQEPGDVFTYAEFDGILGMAYPSLASEYSIPVFDNMMNRHLVAQDLFSVYMDRNGQESMLTLGAIDPSYYTGSLHWVPVTVQQYWQFTVDSVTISGVVVACEGGCQAILDTGTSMLVGPSSDILNIQQAIGATQNQYGEFDIDCDNLSYMPTVVFEINGKMYPLTPSAYTSQDQGFCTSGFQSENHSQKWILGDVFIREYYSVFDRANNLVGLAKAI
B13: bovine chymosin B variant #98 (A51V, K221V, S135T, A126G, S273Y, Q240E) (protein)
chain: B12 chain with A51V, A126G, S135T, M221V, Q240E, S273Y
B14: bovine chymosin B variant #71 (A51V, K221V) (protein)
chain: B12 chain with A51V, M221V
B15: bovine chymosin B variant #7 (K221V) (protein)
chain: B12 chain with M221V
B16: bovine chymosin B variant #74 (A51V, K221M) (protein)
chain: B12 chain with A51V

Where a chain is given by its changes, count along the chain named. In names and notes the source's numbering stands.

The target of this data set is T1, alpha-s1 casein from Bos taurus.
In turn, B1 came in with a (αSN1-1)/(αSN1), 6 hours, 11° C. of 0.6; a (αSN1-1)/(αSN1), 24 hours, 11° C. of 1.7; a αs1-I CN, 6 hours, 11° C. of 1.76e+07 Volume; a αs1-I CN, 24 hours, 11° C. of 2.38e+07 Volume. The αs1 CN, 6 hours, 11° C. was found to be 3.07e+07 Volume and the αs1 CN, 24 hours, 11° C. was found to be 1.36e+07 Volume.

Protein B2 yielded a (αSN1-1)/(αSN1), 6 hours, 11° C. of 0.9; a (αSN1-1)/(αSN1), 24 hours, 11° C. of 3.1; a αs1-I CN, 6 hours, 11° C. of 1.8e+07 Volume; a αs1-I CN, 24 hours, 11° C. of 1.33e+07 Volume. The protein further registered a αs1 CN, 6 hours, 11° C. of 2.1e+07 Volume and a αs1 CN, 24 hours, 11° C. of 4.2e+06 Volume.

In turn, B3 yielded a (αSN1-1)/(αSN1), 6 hours, 11° C. of 0.6; a (αSN1-1)/(αSN1), 24 hours, 11° C. of 2; a αs1-I CN, 6 hours, 11° C. of 1.96e+07 Volume; a αs1-I CN, 24 hours, 11° C. of 2.23e+07 Volume. In addition, the αs1 CN, 6 hours, 11° C. is 3.15e+07 Volume and the αs1 CN, 24 hours, 11° C. stood at 1.1e+07 Volume.

Consider B4, for which the (αSN1-1)/(αSN1), 6 hours, 11° C. was 0.7; the (αSN1-1)/(αSN1), 24 hours, 11° C. was found to be 2.3; the αs1-I CN, 6 hours, 11° C. stood at 1.95e+07 Volume; the αs1-I CN, 24 hours, 11° C. turned out to be 2.22e+07 Volume. Besides, the αs1 CN, 6 hours, 11° C. was 2.63e+07 Volume and the αs1 CN, 24 hours, 11° C. was 9.8e+06 Volume.

In the case of B5, the (αSN1-1)/(αSN1), 6 hours, 11° C. is 0.7; the (αSN1-1)/(αSN1), 24 hours, 11° C. came out at 2.9; the αs1-I CN, 6 hours, 11° C. amounted to 2.02e+07 Volume; the αs1-I CN, 24 hours, 11° C. amounted to 2.29e+07 Volume. The protein further displayed a αs1 CN, 6 hours, 11° C. of 2.73e+07 Volume and a αs1 CN, 24 hours, 11° C. of 8e+06 Volume.

As for B6, the (αSN1-1)/(αSN1), 6 hours, 11° C. turned out to be 0.6; the (αSN1-1)/(αSN1), 24 hours, 11° C. was determined as 2.1; the αs1-I CN, 6 hours, 11° C. stood at 1.81e+07 Volume; the αs1-I CN, 24 hours, 11° C. was 2.49e+07 Volume. Also, the αs1 CN, 6 hours, 11° C. was 2.95e+07 Volume and the αs1 CN, 24 hours, 11° C. is 1.2e+07 Volume.

On to B7, for which the (αSN1-1)/(αSN1), 6 hours, 11° C. amounted to 0.5; the (αSN1-1)/(αSN1), 24 hours, 11° C. is 1.9; the αs1-I CN, 6 hours, 11° C. was found to be 1.65e+07 Volume; the αs1-I CN, 24 hours, 11° C. is 3.1e+07 Volume. In addition, the αs1 CN, 6 hours, 11° C. came out at 3.09e+07 Volume and the αs1 CN, 24 hours, 11° C. is 1.67e+07 Volume.

Protein B8 had a (αSN1-1)/(αSN1), 6 hours, 11° C. of 0.6; a (αSN1-1)/(αSN1), 24 hours, 11° C. of 1.8; a αs1-I CN, 6 hours, 11° C. of 1.59e+07 Volume; a αs1-I CN, 24 hours, 11° C. of 2.66e+07 Volume. The protein further registered a αs1 CN, 6 hours, 11° C. of 2.49e+07 Volume and a αs1 CN, 24 hours, 11° C. of 1.49e+07 Volume.

On to B9, for which the (αSN1-1)/(αSN1), 6 hours, 11° C. came to 0.5; the (αSN1-1)/(αSN1), 24 hours, 11° C. came out at 1.6; the αs1-I CN, 6 hours, 11° C. turned out to be 1.48e+07 Volume; the αs1-I CN, 24 hours, 11° C. came to 1.79e+07 Volume. Moreover, the αs1 CN, 6 hours, 11° C. is 2.79e+07 Volume and the αs1 CN, 24 hours, 11° C. was 1.14e+07 Volume.

In turn, B10 gave a (αSN1-1)/(αSN1), 6 hours, 11° C. of 1.5; a (αSN1-1)/(αSN1), 24 hours, 11° C. of 6.7; a αs1-I CN, 6 hours, 11° C. of 3.09e+07 Volume; a αs1-I CN, 24 hours, 11° C. of 3.78e+07 Volume. The protein further gave a αs1 CN, 6 hours, 11° C. of 2.12e+07 Volume and a αs1 CN, 24 hours, 11° C. of 5.7e+06 Volume.

B11 yielded a (αSN1-1)/(αSN1), 6 hours, 11° C. of 0.6; a (αSN1-1)/(αSN1), 24 hours, 11° C. of 1.8; a αs1-I CN, 6 hours, 11° C. of 1.7e+07 Volume; a αs1-I CN, 24 hours, 11° C. of 1.97e+07 Volume. In addition, the αs1 CN, 6 hours, 11° C. was found to be 2.95e+07 Volume and the αs1 CN, 24 hours, 11° C. is 1.11e+07 Volume.

Consider B12, for which the “hydrolysis of the first cut in alpha-s1-casein” value (“hydrolysis of the first cut” below) was “show a clear hydrolysis of the first cut in alpha-s1-casein, leading to a rapid formation of fragment alpha-s1-I casein”; the small, 6 hours, 11° C. turned out to be 0 Volume; the small, 24 hours, 11° C. came to 4.3e+06 Volume; the αs1-I CN, 6 hours, 11° C. was 1.89e+07 Volume. For the same protein, the αs1-I CN, 24 hours, 11° C. was 2.22e+07 Volume; the αs1-I CN/αs1 CN, 6 hours, 11° C. was found to be 1; the αs1-I CN/αs1 CN, 24 hours, 11° C. is 4.3; the αs1 CN, 6 hours, 11° C. was 1.81e+07 Volume. Moreover, the αs1 CN, 24 hours, 11° C. worked out at 5.1e+06 Volume.

Regarding B13, the “hydrolysis of the first cut” value is listed as “show a clear hydrolysis of the first cut in alpha-s1-casein, leading to a rapid formation of fragment alpha-s1-I casein”; the small, 16 hours, 30° C. was 1.4e+06 Volume; the αs1-I CN, 16 hours, 30° C. amounted to 1.96e+07 Volume; the αs1 CN, 16 hours, 30° C. was determined as 1.5e+06 Volume.

With B14, the “hydrolysis of the first cut” value was “show a clear hydrolysis of the first cut in alpha-s1-casein, leading to a rapid formation of fragment alpha-s1-I casein”; the small, 6 hours, 11° C. amounted to 0 Volume; the small, 16 hours, 30° C. amounted to 2.4e+06 Volume; the small, 24 hours, 11° C. was determined as 0 Volume. In addition, the αs1-I CN, 6 hours, 11° C. came to 2.54e+07 Volume; the αs1-I CN, 16 hours, 30° C. was found to be 1.97e+07 Volume; the αs1-I CN, 24 hours, 11° C. was 2.46e+07 Volume; the αs1-I CN/αs1 CN, 6 hours, 11° C. came to 2.9. Further, the αs1-I CN/αs1 CN, 24 hours, 11° C. came to 9.8; the αs1 CN, 6 hours, 11° C. turned out to be 8.8e+06 Volume; the αs1 CN, 16 hours, 30° C. came to 1.6e+06 Volume; the αs1 CN, 24 hours, 11° C. is 2.5e+06 Volume.

For B15, the “hydrolysis of the first cut” value is listed as “show a clear hydrolysis of the first cut in alpha-s1-casein, leading to a rapid formation of fragment alpha-s1-I casein”; the small, 6 hours, 11° C. was 0 Volume; the small, 24 hours, 11° C. amounted to 1.05e+07 Volume; the αs1-I CN, 6 hours, 11° C. is 2.28e+07 Volume. For the same protein, the αs1-I CN, 24 hours, 11° C. was found to be 1.82e+07 Volume; the αs1-I CN/αs1 CN, 6 hours, 11° C. came out at 2.1; the αs1-I CN/αs1 CN, 24 hours, 11° C. was determined as 6.4; the αs1 CN, 6 hours, 11° C. stood at 1.07e+07 Volume. The αs1 CN, 24 hours, 11° C. turned out to be 2.8e+06 Volume.

As to B16, the “hydrolysis of the first cut” value was “show a clear hydrolysis of the first cut in alpha-s1-casein, leading to a rapid formation of fragment alpha-s1-I casein”; the small, 6 hours, 11° C. came out at 0 Volume; the small, 16 hours, 30° C. worked out at 5.1e+06 Volume; the small, 24 hours, 11° C. came out at 0 Volume. The protein further returned a αs1-I CN, 6 hours, 11° C. of 1.98e+07 Volume; a αs1-I CN, 16 hours, 30° C. of 1.86e+07 Volume; a αs1-I CN, 24 hours, 11° C. of 2.47e+07 Volume; a αs1-I CN/αs1 CN, 6 hours, 11° C. of 0.9. In addition, the αs1-I CN/αs1 CN, 24 hours, 11° C. was 3.9; the αs1 CN, 6 hours, 11° C. came out at 2.09e+07 Volume; the αs1 CN, 16 hours, 30° C. is 1.8e+06 Volume; the αs1 CN, 24 hours, 11° C. was 6.3e+06 Volume.
